Data taken from patent US10711041B2, “Lyophilisate containing a cyclic peptide of formula X1-[sequence]-X2” (priority 2013, dated 2020).
Entries after “also recorded” stand apart in the source; their conditions may differ. Bridges are numbered along the chain shown (N, C = ends). Where no end group is shown, it is not given here.

Legend:
[1] = target: T1, amilorid-sensitive Sodium Ion Channel (ENaC) (Homo sapiens, UniProt P37088); assay: Patch-clamp whole cell, amilorid-sensitive sodium ion current in A549 cells; type: cell-based
T1 construct: Macroscopic Sodium Ion Currents were derived from human lung epithelian cells A549; endogenous in cells; host or cells: A549 human lung epithelial cells
T1 sequence (P37088 1-669): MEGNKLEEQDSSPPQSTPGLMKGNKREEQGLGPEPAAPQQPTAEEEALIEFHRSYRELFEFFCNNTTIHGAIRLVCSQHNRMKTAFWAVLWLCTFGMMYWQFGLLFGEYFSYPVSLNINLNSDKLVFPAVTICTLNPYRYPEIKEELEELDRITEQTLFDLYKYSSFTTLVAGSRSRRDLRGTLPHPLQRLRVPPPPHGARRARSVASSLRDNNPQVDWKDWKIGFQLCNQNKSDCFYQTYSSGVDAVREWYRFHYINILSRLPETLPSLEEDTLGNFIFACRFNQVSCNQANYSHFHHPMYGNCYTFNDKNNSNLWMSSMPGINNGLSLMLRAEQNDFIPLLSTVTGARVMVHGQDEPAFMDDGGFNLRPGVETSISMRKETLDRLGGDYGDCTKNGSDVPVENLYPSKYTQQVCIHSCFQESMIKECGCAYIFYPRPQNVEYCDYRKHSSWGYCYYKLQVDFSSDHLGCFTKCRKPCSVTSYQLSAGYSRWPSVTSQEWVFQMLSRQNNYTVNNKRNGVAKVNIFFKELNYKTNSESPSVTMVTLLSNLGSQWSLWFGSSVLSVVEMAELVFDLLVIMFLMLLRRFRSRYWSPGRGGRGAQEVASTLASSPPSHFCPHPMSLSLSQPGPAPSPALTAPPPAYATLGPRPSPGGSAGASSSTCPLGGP
T1 sequence (P51168 1-640 partner): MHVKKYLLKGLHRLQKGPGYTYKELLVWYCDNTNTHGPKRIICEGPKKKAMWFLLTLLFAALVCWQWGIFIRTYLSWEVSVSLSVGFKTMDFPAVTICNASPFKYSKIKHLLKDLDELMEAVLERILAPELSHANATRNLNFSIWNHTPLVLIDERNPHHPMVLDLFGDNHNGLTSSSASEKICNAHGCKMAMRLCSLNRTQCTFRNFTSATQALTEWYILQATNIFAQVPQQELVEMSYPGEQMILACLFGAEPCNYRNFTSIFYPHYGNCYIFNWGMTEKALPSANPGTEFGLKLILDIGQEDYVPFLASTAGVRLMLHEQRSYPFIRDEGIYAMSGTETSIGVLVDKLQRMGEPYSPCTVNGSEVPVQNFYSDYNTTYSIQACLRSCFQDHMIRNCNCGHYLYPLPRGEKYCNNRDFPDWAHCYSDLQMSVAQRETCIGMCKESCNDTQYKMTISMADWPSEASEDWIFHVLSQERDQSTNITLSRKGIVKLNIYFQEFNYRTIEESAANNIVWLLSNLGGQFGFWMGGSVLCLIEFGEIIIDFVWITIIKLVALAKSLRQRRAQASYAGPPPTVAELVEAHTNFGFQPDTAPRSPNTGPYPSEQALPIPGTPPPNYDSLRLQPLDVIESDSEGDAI
T1 sequence (P51170 1-649 partner): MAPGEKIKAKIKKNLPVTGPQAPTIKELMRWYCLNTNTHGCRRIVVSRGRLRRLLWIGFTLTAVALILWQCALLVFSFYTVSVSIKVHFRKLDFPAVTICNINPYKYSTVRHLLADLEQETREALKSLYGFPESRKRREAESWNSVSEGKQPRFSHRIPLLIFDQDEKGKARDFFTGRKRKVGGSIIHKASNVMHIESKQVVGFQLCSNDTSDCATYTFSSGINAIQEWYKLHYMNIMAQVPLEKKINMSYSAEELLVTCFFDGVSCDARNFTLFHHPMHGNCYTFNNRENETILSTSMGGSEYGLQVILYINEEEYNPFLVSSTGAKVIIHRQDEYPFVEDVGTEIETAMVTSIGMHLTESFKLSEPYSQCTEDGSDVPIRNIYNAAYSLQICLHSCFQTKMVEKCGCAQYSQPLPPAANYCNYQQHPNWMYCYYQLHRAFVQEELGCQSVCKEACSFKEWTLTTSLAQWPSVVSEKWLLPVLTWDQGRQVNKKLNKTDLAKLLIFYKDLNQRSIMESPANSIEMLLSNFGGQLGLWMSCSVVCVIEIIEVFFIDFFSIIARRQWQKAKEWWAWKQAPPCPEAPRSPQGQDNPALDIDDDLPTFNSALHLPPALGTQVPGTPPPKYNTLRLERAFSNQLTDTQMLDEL
Procedure: Macroscopic Sodium Ion Currents were derived from human lung epithelian cells A549 in the “whole cell” configuration by means of the “Patch-clamp” technique (Hamill et al, Pflugers Arch. 1981, 391(2):85-100, 1981). For the currents in the “whole cell” configuration the following bath- and electrode solutions were used:
Bath solution: 135 mM sodium methansulfonate, 10 mM NaCl, 2.7 mM KCl, 1.8 mM CaCl2, 2 mM MgCl2, 5.5 mM glucose, and 10 mM HEPES, pH 7.4.
Electrode solution: 120 mM potassium methansulfonate, 15 mM KCl, 6 mM NaCl, 1 mM Mg2ATP, 2 mM Na3ATP, 10 mM HEPES, and 0.5 mM EGTA (pH 7.2).
Cover glasses with thereon cultivated cells were transferred into a 1 ml containing trial bath, fixed onto the microscope table (Axiovert 100, 400-fold enlargement) and the cells were superfunded with the above described bath solution. Subsequent from an appropriate cell (sticking on the cover glass) the current was deduced. […] On receipt of a “Gigaohm-Seal” a defined membrane hold potential was created via a preamplifier (CV-4 Headstag, Axon Instruments) and amplifier (Axopatch 1D, Axon Instr.) and the current which thereby flows through the ion channels is measured.
That protocol was done before (control) and after addition of the cyclic proteins. The thus obtained currents were recorded and analyzed by means of the program PCLAMP 6.0. […]

[2] = Chemical stability of condensed aerosol by reverse HPLC/MS; type: physicochemical; conditions: Mesh-Type nebulizer, aerosol condensed in cooling trap
Procedure: Since proteins and peptides occasionally may be rather unstable, it was investigated, whether the cyclic peptides of amino acid sequence SEQ ID NO:1 to SEQ ID NO:6 in dissolved preparation during conversion into an aerosol remain stable. For that the cyclic peptides were dissolved in water as described in example 4. After filling into the storage container of a nebulizer the aqueous solution of the cyclic peptides were converted into an aerosol. For that a “Mesh-Type” nebulizer was used. The biological activity of the collected aerosols was determined by means of the Patch Clamp method. Thereby macroscopic currents of A549 cells were deduced in the “whole cell” configuration of the “Patch-clamp” technique, as described under “Electrophysiological Investigations of the Amilorid-sensitive Sodium Ion Channel (ENaC)”.
The chemical stability of the condensed aerosols was determined by means of reverse HPLC/MS.

Row | Compound | biological activity (in words) ([1]; amilorid-sensitive sodium current) | EC50 (activity on cellular amilorid-sensitive sodium ion current) ([1]; whole cell patch clamp) | chemical stability during transformation into an aerosol [2]
1 | Cyclo(CGQREAPAGAAAKPWYC) (disulfide 1-17) [SEQ ID NO: 7, reference compound] | biologically inactive; also recorded: not active | no activity | 
2 | C[C@@H]1NC(=O)CNC(=O)[C@H](CCC(=O)O)NC(=O)[C@@H]2CCCN2C(=O)[C@H]([C@@H](C)O)NC(=O)[C@H](CCC(=O)O)NC(=O)[C@H](CCCNC(=N)N)NC(=O)[C@H](CCC(N)=O)NC(=O)CNC(=O)[C@@H](N)CSSC[C@@H](C(=O)O)NC(=O)[C@H](Cc2ccc(O)cc2)NC(=O)[C@H](Cc2c[nH]c3ccccc23)NC(=O)[C@@H]2CCCN2C(=O)[C@H](CCCCN)NC(=O)[C@H](C)NC(=O)[C@H](CCC(=O)O)NC1=O [SEQ ID NO: 1] |  |  | keeps its biological, as well as its chemical stability
